Data on 13 molecules can be found in patent publication US20230235004A1 (published 2023).

The labels stand for the following.
B1: MAdCAM antibody Table 1 clone 44 (scFv)
scFv: EVQLVESGGGLVKPGGSLRLSCAASGFTFSSYWMSWVRQAPGKGLEWVSAIGTGGGTYYAAPVKGRFTISRDDSKNTLYLQMNSLKTEDTAVYYCAREWLVPYYGMDVWGQGTTVTVSSGGGGSGGGGSGGGGSGGGGSDIQMTQSPSSLSASVGDRVTITCRASQSISRWLAWYQQKPGKAPKLLIYGASNLQSGVPSRFSGSGSGTDFTLTISSLQPEDFATYYCQQSYSTPWTFGQGTKVEIK
B2: MAdCAM antibody Table 1 clone 47 (scFv)
scFv: EVQLLESGGGLVQPGGSLRLSCAASGFSFSDYGMHWVRQAPGKGLEWVSAISGSGGSTYYADSVKGRFTISRDNSKNTLYLQMNSLRAEDTAVYYCARDGGWQPAAILDYWGQGTLVTVSSGGGGSGGGGSGGGGSGGGGSDIQMTQSPSSLSASVGDRVTITCRASQGISNNLNWYQQKPGKAPKLLIYDASNLETGVPSRFSGSGSGTDFTLTISSLQPEDFATYYCQQSYSTPLTFGGGTKVEIK
B3: MAdCAM antibody Table 1 clone 49 (scFv)
scFv: QVQLVQSGAEVKKPGASVKVSCKASGDTFTGYYIHWVRQAPGQGLEWMGWINPNSGGTNYAQKFQGRVTMTRDTSTSTVYMELSSLRSEDTAVYYCARSGLWLGSYYGMDVWGQGTLVTVSSGGGGSGGGGSGGGGSGGGGSDIQMTQSPSSLSASVGDRVTITCRASQTISIWLAWYQQKPGKAPKLLIYDASTLQSGVPSRFSGSGSGTDFTLTISSLQPEDFATYYCQQYSSYPLTFGQGTKVEIK
B4: MAdCAM antibody Table 1 clone 48 (scFv)
scFv: EVQLLESGGGLVQPGGSLRLSCAASGFTFSDHGMHWVRQAPGKGLEWVSVIYGGESTYYADSVKGRFTISRDNSKNTLYLQMNSLRAEDTAVYYCARDPAVAGGGIFDYWGQGTLVTVSSGGGGSGGGGSGGGGSGGGGSDIQMTQSPSSLSASVGDRVTITCRASQGISNYLAWYQQKPGKAPKLLIYDASNLETGVPSRFSGSGSGTDFTLTISSLQPEDFATYYCQQSYSTCYTFGQGTKLEIK
B5: MAdCAM antibody Table 1 clone 45 (scFv)
scFv: EVQLLESGGGLVQPGGSLRLSCAASGFSVSSNYMSWVRQAPGKGLEWVAGISYDGSSKPYADSVKGRFTISRDNSKNTLYLQMNSLRAEDTAVYYCARSRGIAARPLQHWGQGTLVTVSSGGGGSGGGGSGGGGSGGGGSDIVMTQSPDSLAVSLGERATINCKSSQSVLYSSNNKNYLAWYQQKPGQPPKLLIYWASTRQSGVPDRFSGSGSGTDFTLTISSLQAEDVAVYYCHQYYGHPPTFGGGTKVEIK
B6: MAdCAM antibody Table 1 clone 46 (scFv)
scFv: B5 scFv with W196Q
B7: MAdCAM antibody Table 1 clone 51 (scFv)
scFv: EVQLLESGGGLVQPGGSLRLSCAASGFTFNNYGMNWVRQAPGKGLEWVSRINSDGSSTSYADSVKGRFTISRDNSKNTLYLQMNSLRAEDTAVYYCARGAYYYYYMDVWGQGTLVTVSSGGGGSGGGGSGGGGSGGGGSEIVMTQSPATLSVSPGERATLSCRASQSVSGSYLAWYQQKPGQAPRLLIYATSSRASGIPARFSGSGSGTEFTLTISSLQSEDFAVYYCQQYYSGLTFGQGTKVEIK
B8: MAdCAM antibody Table 1 clone 43 (scFv)
scFv: EVQLLESGGGLVQPGGSLRLSCAASGFTFDDFAMHWVRQAPGKGLEWVSGISGNGDSRYYADSVKGRFTISRDNSKNTLYLQMNSLRAEDTAVYYCARDASYGGNYGMDVWGQGTTVTVSSGGGGSGGGGSGGGGSGGGGSDIQMTQSPSSLSASVGDRVTITCQASQDIRNYLNWYQQKPGKAPKLLIYKASTLESGVPSRFSGSGSGTDFTLTISSLQPEDFATYYCQQANSFPLTFGPGTKVDIK
B9: MAdCAM antibody Table 1 clone 56 (scFv)
scFv: EVQLLESGGGLVQPGGSLRLSCAASGFTFDDYAMHWVRQAPGKGLEWVSAISGGGEDTYYADSVKGRFTISRDNSKNTLYLQMNSLRAEDTAVYYCARDASYGGNYGMDVWGQGTTVTVSSGGGGSGGGGSGGGGSGGGGSDIQMTQSPSSLSASVGDRVTITCQASQDIRNYLNWYQQKPGKAPKLLIYKASSLESGVPSRFSGSGSGTDFTLTISSLQPEDFATYYCQQANSYPVTFGGGTKVEIK
B10: MAdCAM antibody Table 1 clone 50 (scFv)
scFv: QVQLVQSGAEVKKPGASVKVSCKASGYTFTSYDINWVRQAPGQGLEWMGWINPNSGTTGYAQKFQGRVTMTRDTSTSTVYMELSSLRSEDTAVYYCARSPYYYYGMDVWGQGTTVTVSSGGGGSGGGGSGGGGSGGGGSDIQMTQSPSSLSASVGDRVTITCRASHFISRWVAWYQQKPGKAPKLLIYAASTLQSGVPSRFSGSGSGTDFTLTISSLQPEDFATYYCQQSYSGISFGPGTKVDIK
B11: MAdCAM antibody Table 1 clone 53 (scFv)
scFv: QVQLVQSGAEVKKPGASVKVSCKASGYTFTSYDINWVRQAPGQGLEWMGWMNPNSGNTGYAQKFQGRVTMTRDTSTSTVYMELSSLRSEDTAVYYCAKDSDYSNLLWDYWGQGTLVTVSSGGGGSGGGGSGGGGSGGGGSDIQMTQSPSSLSASVGDRVTITCRASQDITNDLGWYQQKPGKAPKLLIYQASSLESGVPSRFSGSGSGTDFTLTISSLQPEDFATYYCQQSYTIPLTFGQGTKVEIK
B12: MAdCAM antibody Table 1 clone 42 (scFv)
scFv: QVQLVQSGAEVKKPGSSVKVSCKASGGTLSRYGVSWVRQAPGQGLEWMGGIIPIFGTTNYAQKFQGRVTITADESTSTAYMELSSLRSEDTAVYYCARDRVYYDSSGYPTWYFDLWGRGTLVTVSSGGGGSGGGGSGGGGSGGGGSEIVMTQSPATLSVSPGERATLSCRASQSVSSSYLAWYQQKPGQAPRLLIYGASTRATGIPARFSGSGSGTEFTLTISSLQSEDFAVYYCQQYGSSPITFGQGTKVEIK
B13: MAdCAM antibody Table 1 clone 52 (scFv)
scFv: EVQLLESGGGLVQPGGSLRLSCAASGFTFSNSDMNWVRQAPGKGLEWVAHIWNDGSQKYYADSVKGRFTISRDNSKNTLYLQMNSLRAEDTAVYYCARDRTDPGYSSAMDVWGQGTTVTVSSGGGGSGGGGSGGGGSGGGGSDIQMTQSPSSLSASVGDRVTITCRASQDIRNYLGWYQQKPGKAPKLLIYDASSLETGVPSRFSGSGSGTDFTLTISSLQPEDFATYYCQQATSLPLTFGGGTKVEIK

Substitutions are numbered along the chain they refer to.

For the first assay, the target named is T1, mouse MAdCAM expressed on cells (mouse, UniProt Q61826 22-405).
T1 construct: whole, on cells
T1 sequence (looked up): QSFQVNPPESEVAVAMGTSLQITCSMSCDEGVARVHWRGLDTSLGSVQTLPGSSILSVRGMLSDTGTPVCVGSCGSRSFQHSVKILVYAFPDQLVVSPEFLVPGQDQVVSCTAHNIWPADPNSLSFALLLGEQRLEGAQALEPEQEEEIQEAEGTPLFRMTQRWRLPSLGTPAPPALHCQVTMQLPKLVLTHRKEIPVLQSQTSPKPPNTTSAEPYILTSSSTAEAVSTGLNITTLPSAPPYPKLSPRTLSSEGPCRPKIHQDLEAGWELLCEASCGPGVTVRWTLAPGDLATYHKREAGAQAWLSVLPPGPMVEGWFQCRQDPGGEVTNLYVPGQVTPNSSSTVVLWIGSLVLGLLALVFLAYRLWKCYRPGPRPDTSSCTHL
Briefly: cell binding.
As to B1, the binding result is listed as “no binding”.

With B2, the binding result is “no binding”.

As for B3, the binding result is recorded as “no binding”.

Consider B4, for which the binding result was “no binding”.

Regarding B5, the binding result is listed as “no binding”.

Regarding B6, the binding result is on record as “no binding”.

Turning to B7, the binding result is recorded as “no binding”.

Consider B8, for which the binding result is “no binding”.

Take B9: the binding result is on record as “no binding”.

With B10, the binding result is reported as “no binding”.

With B11, the binding result is “no binding”.

For B12, the binding result is “no binding”.

B13: the binding result is on record as “no binding”.

In the next assay the target is T2, human MAdCAM expressed on cells (human, UniProt Q13477 19-382).
T2 construct: whole, on cells
T2 sequence (looked up): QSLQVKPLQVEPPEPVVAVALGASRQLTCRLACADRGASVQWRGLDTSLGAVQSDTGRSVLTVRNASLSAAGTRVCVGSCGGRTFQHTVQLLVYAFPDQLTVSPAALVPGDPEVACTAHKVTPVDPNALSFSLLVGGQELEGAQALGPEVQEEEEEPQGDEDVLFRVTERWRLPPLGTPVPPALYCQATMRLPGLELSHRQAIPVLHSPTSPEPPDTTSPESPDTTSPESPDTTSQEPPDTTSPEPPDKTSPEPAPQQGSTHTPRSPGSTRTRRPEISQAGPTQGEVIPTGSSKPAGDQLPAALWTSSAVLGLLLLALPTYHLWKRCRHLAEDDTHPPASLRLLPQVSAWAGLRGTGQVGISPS
Briefly: cell binding.
As for B1, the binding result is recorded as “binds”.

On to B2, for which the binding result is given as “binds”.

In the case of B3, the binding result is “binds”.

Turning to B4, the binding result is “binds”.

B5: the binding result is given as “binds”.

Take B6: the binding result is listed as “binds”.

As for B7, the binding result is listed as “binds”.

For B8, the binding result is “binds”.

As to B9, the binding result is “binds”.

For B10, the binding result was “binds”.

B11: the binding result was “binds”.

Take B12: the binding result is listed as “binds”.

Consider B13, for which the binding result is “binds”.
